Laboratory results reported in patent US20060069055.

Assays:
Assay in all cases: EMSA
[1] = biological target: NF-kB p65/p50 heterodimer (Homo sapiens) (UniProt Q04206+P19838); settings: 50% competition not reached; same for p50/p50
[2] = biological target: T1, NF-kB p50/p50 homodimer (Homo sapiens) (UniProt P19838); settings: score 100 = less than 50% competition at any ratio tested
T1 sequence: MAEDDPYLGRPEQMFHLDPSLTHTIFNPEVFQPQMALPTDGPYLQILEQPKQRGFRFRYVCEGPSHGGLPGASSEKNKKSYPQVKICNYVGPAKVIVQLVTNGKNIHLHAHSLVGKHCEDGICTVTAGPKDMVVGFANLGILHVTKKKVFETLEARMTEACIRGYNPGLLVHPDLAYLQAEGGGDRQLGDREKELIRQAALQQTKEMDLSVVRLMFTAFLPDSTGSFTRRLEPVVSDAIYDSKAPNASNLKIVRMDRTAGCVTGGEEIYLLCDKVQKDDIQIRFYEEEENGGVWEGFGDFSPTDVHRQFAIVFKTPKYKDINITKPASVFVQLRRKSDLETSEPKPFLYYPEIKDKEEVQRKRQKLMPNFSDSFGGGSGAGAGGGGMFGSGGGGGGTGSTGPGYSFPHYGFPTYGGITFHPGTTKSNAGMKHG

[3] = system: E2F

NF-kB p65/p50 heterodimer (Homo sapiens), sequence (Q04206 whole entry, one chain of several): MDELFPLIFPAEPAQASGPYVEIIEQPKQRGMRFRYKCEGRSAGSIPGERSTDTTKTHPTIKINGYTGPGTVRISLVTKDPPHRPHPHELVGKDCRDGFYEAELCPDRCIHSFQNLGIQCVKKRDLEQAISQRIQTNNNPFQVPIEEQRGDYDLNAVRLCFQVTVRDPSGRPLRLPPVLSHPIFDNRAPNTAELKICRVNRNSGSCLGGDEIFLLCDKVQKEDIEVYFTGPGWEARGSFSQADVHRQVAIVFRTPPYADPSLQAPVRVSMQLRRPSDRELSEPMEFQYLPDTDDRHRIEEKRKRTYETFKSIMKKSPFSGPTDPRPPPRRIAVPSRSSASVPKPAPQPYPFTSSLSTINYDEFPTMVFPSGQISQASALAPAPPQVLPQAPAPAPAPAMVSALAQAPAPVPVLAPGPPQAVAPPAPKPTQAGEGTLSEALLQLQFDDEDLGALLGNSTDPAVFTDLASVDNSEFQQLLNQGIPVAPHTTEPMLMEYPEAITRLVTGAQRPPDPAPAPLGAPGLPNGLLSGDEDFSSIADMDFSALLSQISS

Sequence: AGTTGAGACTTTCGCAGGC (double strand) [decoy 159 G-Z]
- IC50 [1]: 100 score
- IC50 (fold molar excess) [2]: > 100

Sequence: CTAGATTTCCCGCGGATC (double strand) [E2F novel decoy]
- binding signal (% competition at 10-fold excess) ([3]; 90% at 40-fold excess): > 60

Sequence: CTAGATTTCCCGCG (double strand) [E2F reference decoy]
- binding signal (% competition at 10-fold excess) ([3]; 40% at 40-fold excess): 7
